B1: Retinal rod rhodopsin-sensitive cGMP 3',5'-cyclic phosphodiesterase subunit gamma (Homo sapiens), P18545 (parent)
chain: MNLEPPKAEFRSATRVAGGPVTPRKGPPKFKQRQTRQFKSKPPKKGVQGFGDDIPGMEGLGTDITVICPWEAFNHLELHELAQYGII
partner: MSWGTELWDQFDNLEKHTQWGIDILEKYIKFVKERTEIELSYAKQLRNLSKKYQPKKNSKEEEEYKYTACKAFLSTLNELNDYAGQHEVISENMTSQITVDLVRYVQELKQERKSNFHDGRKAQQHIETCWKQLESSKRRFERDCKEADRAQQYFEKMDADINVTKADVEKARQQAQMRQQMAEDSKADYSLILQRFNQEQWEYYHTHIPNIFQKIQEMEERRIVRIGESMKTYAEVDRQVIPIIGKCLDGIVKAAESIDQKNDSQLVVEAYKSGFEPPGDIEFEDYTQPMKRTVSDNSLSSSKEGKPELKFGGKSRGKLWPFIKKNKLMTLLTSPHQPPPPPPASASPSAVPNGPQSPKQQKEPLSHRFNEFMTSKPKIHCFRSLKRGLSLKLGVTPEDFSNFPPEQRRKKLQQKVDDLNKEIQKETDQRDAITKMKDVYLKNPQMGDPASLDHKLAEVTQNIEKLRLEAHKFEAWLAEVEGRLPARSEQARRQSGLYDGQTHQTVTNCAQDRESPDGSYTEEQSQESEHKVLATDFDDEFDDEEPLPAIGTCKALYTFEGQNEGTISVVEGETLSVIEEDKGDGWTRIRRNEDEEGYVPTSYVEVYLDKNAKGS
B2: Retinal rod rhodopsin-sensitive cGMP 3',5'-cyclic phosphodiesterase subunit gamma (Homo sapiens), P18545 (parent)
chain: B1 chain

Legend:
[1] = variants of: B1; settings: with fnbp1_rat Fnbp1, Q8R511
[2] = variants of: B2; settings: with pacn2_rat Pacsin2, Q9QY17
[3] = variants of: B2; settings: with grb2_rat Grb2, P62994
[4] = variants of: B2; settings: with src_rat Src

Row | Variant | effect of a mutation on the interaction [1] | effect of a mutation on the interaction [2] | effect of a mutation on the interaction [3] | effect of a mutation on the interaction [4]
1 | MNLEPPKAEFRSATRVAGGPVTARKGPPKFKQRQTRQFKSKPPKKGVQGFGDDIPGMEGLGTDITVICPWEAFNHLELHELAQYGII [P23A] | disrupting interaction | – | – | –
2 | MNLEPPKAEFRSATRVAGGAVTPRKGPPKFKQRQTRQFKSKPPKKGVQGFGDDIPGMEGLGTDITVICPWEAFNHLELHELAQYGII [P20A] | disrupting interaction | – | – | –
3 | MNLEPPKAEFRSATRVAGGPVTARKGPPKFKQRQTRQFKSKPPKKGVQGFGDDIPGMEGLGTDITVICPWEAFNHLELHELAQYGII [P23A] | – | decreasing interaction | decreasing interaction | disrupting interaction
4 | MNLEPPKAEFRSATRVAGGAVTPRKGPPKFKQRQTRQFKSKPPKKGVQGFGDDIPGMEGLGTDITVICPWEAFNHLELHELAQYGII [P20A] | – | decreasing interaction | decreasing interaction | disrupting interaction
